The results in this text go back to publication PMC10899635, “Q586B2 is a crucial virulence factor during the early stages of Trypanosoma brucei infection that is conserved amongst trypanosomatids” (Nature Communications, 2024).

The target in this test is recombinant Q586B2 protein (Trypanosoma brucei brucei). In words: SEC; size exclusion chromatography after IMAC; uniform peak of approximately 55 kDa. A general note: In gel filtration, larger molecules generally elute earlier.

On to “recombinant Q586B2 protein (natural protein)”, for which the stoichiometry N (in general, the number of molecules, sites or subunits per partner or assembly) came out at 4.
